# Reference: patent US20230042694A1 (SUZHOU CUREMED BIOMEDICAL TECHNOLOGY, published 2023)
# Biological target: KRAS protein (UniProt P01116 1-186, limits assumed)
# Test: cell-based or functional assay
row,Binder,"Percentage of KRAS protein level (Western Blot, H358 cells, 6 hours after transfection; protein level of EV29-K19-VHKC as control)"
1,recombinant polypeptide K19-CHIP (N-K19 (first polypeptide)-linker peptide-CHIP (second polypeptide)-C) (other) MDLGKKLLEAARAGQDDEVRILMANGADVNASDRGGGTPLHLAAAGGHLEIVEVLLKRGADVSAADLHGQSPLHLAAMVGHLEIVEVLLKYGADVNAKDTMGATPLHLAARSGHLEIVEELLKNGADMNAQDKFGKTTFDISTDNGNEDLAEILQKLSGSGSGSGRLNFGDDIPSALRIAKKKRWNSIEERRIHQESELHSYLSRLIAAERERELEECQRNHEGDEDDSHVRAQQACIEAKHDKYMADMDELFSQVDEKRKKRDIPDYLCGKISFELMREPCITPSGITYDRKDIEEHLQRVGHFDPVTRSPLTQEQLIPNLAMKEVIDAFISENGWVEDYGS,28.3%
2,recombinant polypeptide βTrCP-K19 (N-βTrCP (second polypeptide)-linker peptide-K19 (first polypeptide)-C) (other) MGGLDYKDDDDKASDPAEAVLQEKALKFMNSSEREDCNNGEPPRKIIPEKNSLRQTYNSCARLCLNQETVCLASTAMKTENCVAKTKLANGTSSMIVPKQRKLSASYEKEKELCVKYFEQWSESDQVEFVEHLISQMCHYQHGHINSYLKPMLQRDFITALPARGLDHIAENILSYLDAKSLCAAELVCKEWYRVTSDGMLWKKLIERMVRTDSLWRGLAERRGWGQYLFKNKPPDGNAPPNSFYRALYPKIIQDIETIESNWRCGRHSLQRIHCRSGSGSGSGMDLGKKLLEAARAGQDDEVRILMANGADVNASDRGGGTPLHLAAAGGHLEIVEVLLKRGADVSAADLHGQSPLHLAAMVGHLEIVEVLLKYGADVNAKDTMGATPLHLAARSGHLEIVEELLKNGADMNAQDKFGKTTFDISTDNGNEDLAEILQKL,19.3%
3,recombinant polypeptide FBW7-K19 (N-FBW7 (second polypeptide)-linker peptide-K19 (first polypeptide)-C) (other) MGGLDYKDDDDKASCVPRSGLILSCICLYCGVLLPVLLPNLPFLTCLSMSTLESVTYLPEKGLYCQRLPSSRTHGGTESLKGKNTENMGFYGTLKMIFYKMKRKLDHGSEVRSFSLGKKPCKVSEYTSTTGLVPCSATPTTFGDLRAANGQGQQRRRITSVQPPTGLQEWLKMFQSWSGPEKLLALDELIDSCEPTQVKHMMQVIEPQFQRDFISLLPKELALYVLSFLEPKDLLQAAQTCRYWRILAEDNLLWREKCKEEGIDEPLHIKRRKVIKPGFIHSPWKSAYIRQHRIDTNWRRGELKSPSGSGSGSGMDLGKKLLEAARAGQDDEVRILMANGADVNASDRGGGTPLHLAAAGGHLEIVEVLLKRGADVSAADLHGQSPLHLAAMVGHLEIVEVLLKYGADVNAKDTMGATPLHLAARSGHLEIVEELLKNGADMNAQDKFGKTTFDISTDNGNEDLAEILQKL,45.9%
4,recombinant polypeptide K19-ASB1 (N-K19 (first polypeptide)-linker peptide-ASB1 (second polypeptide)-C) (other) MDLGKKLLEAARAGQDDEVRILMANGADVNASDRGGGTPLHLAAAGGHLEIVEVLLKRGADVSAADLHGQSPLHLAAMVGHLEIVEVLLKYGADVNAKDTMGATPLHLAARSGHLEIVEELLKNGADMNAQDKFGKTTFDISTDNGNEDLAEILQKLSGSGSGSGVKWESLGPESRGRRKVDPEALQVFKEARSVPRTLLCLCRVAVRRALGKHRLHLIPSLPLPDPIKKFLLHEGS,39.8%

# Second part, the binder after the results:
row,"Percentage of KRAS protein level (Western Blot, H358 cells, 6 hours after transfection; protein level of EV29-K19-VHKC as control)",Binder
1,47.3%,recombinant polypeptide K19-SOCS2 (N-K19 (first polypeptide)-linker peptide-SOCS2 (second polypeptide)-C) (other) MDLGKKLLEAARAGQDDEVRILMANGADVNASDRGGGTPLHLAAAGGHLEIVEVLLKRGADVSAADLHGQSPLHLAAMVGHLEIVEVLLKYGADVNAKDTMGATPLHLAARSGHLEIVEELLKNGADMNAQDKFGKTTFDISTDNGNEDLAEILQKLSGSGSGSGPRNGTVHLYLTKPLYTSAPSLQHLCRLTINKCTGAIWGLPLPTRLKDYLEEYKFQVGS
2,28.2%,recombinant polypeptide CRBN-K19 (N-CRBN (second polypeptide)-linker peptide-K19 (first polypeptide)-C) (other) MGGLDYKDDDDKASAGEGDQQDAAHNMGNHLPLLPAESEEEDEMEVEDQDSKEAKKPNIINFDTSLPTSHTYLGADMEEFHGRTLHDDDSCQVIPVLPQVMMILIPGQTLPLQLFHPQEVSMVRNLIQKDRTFAVLAYSNVQEREAQFGTTAEIYAYREEQDFGIEIVKVKAIGRQRFKVLELRTQSDGIQQAKVQILPECVLPSTMSAVQLESLNKCQIFPSKPVSREDQCSYKWWQKYQKRKFHCANLTSWPRWLYSLYDAETLMDRIKKQLREWDENLKDDSLPSNPIDFSYRVAACLPIDDVLRIQLLKIGSAIQRLRCELDIMNKCTSSGSGSGSGMDLGKKLLEAARAGQDDEVRILMANGADVNASDRGGGTPLHLAAAGGHLEIVEVLLKRGADVSAADLHGQSPLHLAAMVGHLEIVEVLLKYGADVNAKDTMGATPLHLAARSGHLEIVEELLKNGADMNAQDKFGKTTFDISTDNGNEDLAEILQKL
3,22.4%,recombinant polypeptide K19-SPOP (N-K19 (first polypeptide)-linker peptide-SPOP (second polypeptide)-C) (other) MDLGKKLLEAARAGQDDEVRILMANGADVNASDRGGGTPLHLAAAGGHLEIVEVLLKRGADVSAADLHGQSPLHLAAMVGHLEIVEVLLKYGADVNAKDTMGATPLHLAARSGHLEIVEELLKNGADMNAQDKFGKTTFDISTDNGNEDLAEILQKLGSGSGSGSVNISGQNTMNMVKVPECRLADELGGLWENSRFTDCCLCVAGQEFQAHKAILAARSPVFSAMFEHEMEESKKNRVEINDVEPEVFKEMMCFIYTGKAPNLDKMADDLLAAADKYALERLKVMCEDALCSNLSVENAAEILILADLHSADQLKTQAVDFINYHASDVLETSGWKSMVVSHPHLVAEAYRSLASAQCPFLGPPRKRLKQS
4,52.6%,recombinant polypeptide DDB2-K19 (N-DDB2 (second polypeptide)-linker peptide-K19 (first polypeptide)-C) (other) MGGLDYKDDDDKASAPKKRPETQKTSEIVLRPRNKRSRSPLELEPEAKKLCAKGSGPSRRCDSDCLWVGLAGPQILPPCRSIVRTLHQHKLGRASWPSVQQGLQQSFLHTLDSYRILQKAAPFDRRASGSGSGSGMDLGKKLLEAARAGQDDEVRILMANGADVNASDRGGGTPLHLAAAGGHLEIVEVLLKRGADVSAADLHGQSPLHLAAMVGHLEIVEVLLKYGADVNAKDTMGATPLHLAARSGHLEIVEELLKNGADMNAQDKFGKTTFDISTDNGNEDLAEILQKL
5,20.4%,recombinant polypeptide SKP2-K19 (N-SKP2 (second polypeptide)-linker peptide-K19 (first polypeptide)-C) (other) MGGLDYKDDDDKASHRKHLQEIPDLSSNVATSFTWGWDSSKTSELLSGMGVSALEKEEPDSENIPQELLSNLGHPESPPRKRLKSKGSDKDFVIVRRPKLNRENFPGVSWDSLPDELLLGIFSCLCLPELLKVSGVCKRWYRLASDESLWQTLDLTGKNLSGSGSGSGMDLGKKLLEAARAGQDDEVRILMANGADVNASDRGGGTPLHLAAAGGHLEIVEVLLKRGADVSAADLHGQSPLHLAAMVGHLEIVEVLLKYGADVNAKDTMGATPLHLAARSGHLEIVEELLKNGADMNAQDKFGKTTFDISTDNGNEDLAEILQKL
